Target: CfaE, tip-localized minor adhesive subunit of CFA/I fimbriae (enterotoxigenic Escherichia coli) (UniProt P25734)
Assay: […], fluorescence at 320 nm; […]

Substance: mtCfaA (CfaA variant with the triple residue substitution T112I/L114I/V116I on the G1 strand) (natural protein)
- mid-point dissociation concentration of GdnCl: 0.966 M

— paper PMC7531860
